These results are taken from US7947468B2, “Methods” (Medical Research Council, priority 2007, dated 2011).

Residue numbers refer to the chain shown, from its start. Numbers in names are those of the source.

Substrate in data set [1]: CC[C@H](C)[C@H](NC(=O)[C@H](CCC(N)=O)NC(=O)[C@H](CCCNC(=N)N)NC(=O)[C@H](CC(C)C)NC(=O)[C@@H](NC(=O)[C@H](CCCCN)NC(=O)[C@H](Cc1ccc(O)cc1)NC(=O)[C@H](CCCCN)NC(=O)[C@H](CC(=O)O)NC(=O)[C@H](CCCNC(=N)N)NC(=O)CNC(=O)[C@H](CC(C)C)NC(=O)[C@@H](N)CCCNC(=N)N)[C@@H](C)O)C(=O)N[C@@H](CCCNC(=N)N)C(=O)N[C@@H](CCC(N)=O)C(=O)O
In words: Assay of LRRK2 using LRRKtide as substrate (non-mutated enzyme). The format is biochemical, human. The following applies: other: non-mutated GST-LRRK2[1326-2527], varying LRRKtide, 0.1 mM ATP, 30 min 30° C. The protocol:
(§1) Assay of LRRK2 using LRRKtide as substrate. Assays were set up in a total volume of 50 μl of Buffer A containing 0.5-0.7 μg of either wild type or mutant forms LRRK2, 10 mM MgCl2 and 0.1 mM [γ^32P]-ATP (300 cpm/pmol) in the presence of 300 μM or the indicated concentration of LRRKtide (RLGRDKYKTLRQIRQ; SEQ ID NO:1) peptide substrate. After incubation for 30 min at 30° C., reactions were terminated by applying 40 μl of the reaction mixture onto P81 phosphocellulose paper and phosphorylation of LRRKtide was quantified following washing the P81 phosphocellulose in 50 mM phosphoric acid and Cherenkov counting. One Unit (U) of LRRK2 activity was defined as the amount of enzyme that catalysed the incorporation of 1 nmol of ^32P into LRRKtide. Km and Vmax parameters were determined by performing the assay described above using varying concentration of LRRKtide. The Km and Vmax parameters were calculated using the Graph-Pad prism programme.

Substrate in data set [2]: CC[C@H](C)[C@H](NC(=O)[C@H](CCC(N)=O)NC(=O)[C@H](CCCNC(=N)N)NC(=O)[C@H](CC(C)C)NC(=O)[C@@H](NC(=O)[C@H](CCCCN)NC(=O)[C@H](Cc1ccc(O)cc1)NC(=O)[C@H](CCCCN)NC(=O)[C@H](CC(=O)O)NC(=O)[C@H](CCCNC(=N)N)NC(=O)CNC(=O)[C@H](CC(C)C)NC(=O)[C@@H](N)CCCNC(=N)N)[C@@H](C)O)C(=O)N[C@@H](CCCNC(=N)N)C(=O)N[C@@H](CCC(N)=O)C(=O)O
Description: Assay of LRRK2 using LRRKtide as substrate (G2019S mutant). Format: biochemical, human. The following applies: other: GST-LRRK2[1326-2527, G2019S], varying LRRKtide, 0.1 mM ATP, 30 min 30° C. The protocol: as §1

B1: GST-LRRK2[1326-2527] (Homo sapiens) (protein)
chain: LKKAVPYNRMKLMIVGNTGSGKTTLLQQLMKTKKSDLGMQSATVGIDVKDWPIQIRDKRKRDLVLNVWDFAGREEFYSTHPHFMTQRALYLAVYDLSKGQAEVDAMKPWLFNIKARASSSPVILVGTHLDVSDEKQRKACMSKITKELLNKRGFPAIRDYHFVNATEESDALAKLRKTIINESLNFKIRDQLVVGQLIPDCYVELEKIILSERKNVPIEFPVIDRKRLLQLVRENQLQLDENELPHAVHFLNESGVLLHFQDPALQLSDLYFVEPKWLCKIMAQILTVKVEGCPKHPKGIISRRDVEKFLSKKRKFPKNYMSQYFKLLEKFQIALPIGEEYLLVPSSLSDHRPVIELPHCENSEIIIRLYEMPYFPMGFWSRLINRLLEISPYMLSGRERALRPNRMYWRQGIYLNWSPEAYCLVGSEVLDNHPESFLKITVPSCRKGCILLGQVVDHIDSLMEEWFPGLLEIDICGEGETLLKKWALYSFNDGEEHQKILLDDLMKKAEEGDLLVNPDQPRLTIPISQIAPDLILADLPRNIMLNNDELEFEQAPEFLLGDGSFGSVYRAAYEGEEVAVKIFNKHTSLRLLRQELVVLCHLHHPSLISLLAAGIRPRMLVMELASKGSLDRLLQQDKASLTRTLQHRIALHVADGLRYLHSAMIIYRDLKPHNVLLFTLYPNAAIIAKIADYGIAQYCCRMGIKTSEGTPGFRAPEVARGNVIYNQQADVYSFGLLLYDILTTGGRIVEGLKFPNEFDELEIQGKLPDPVKEYGCAPWPMVEKLIKQCLKENPQERPTSAQVFDILNSAELVCLTRRILLPKNVIVECMVATHHNSRNASIWLGCGHTDRGQLSFLDLNTEGYTSEEVADSRILCLALVHLPVEKESWIVSGTQSGTLLVINTEDGKKRHTLEKMTDSVTCLYCNSFSKQSKQKNFLLVGTADGKLAIFEDKTVKLKGAAPLKILNIGNVSTPLMCLSESTNSTERNVMWGGCGTKIFSFSNDFTIQKLIETRTSQLFSYAAFSDSNIITVVVDTALYIAKQNSPVVEVWDKKTEKLCGLIDCVHFLREVMVKENKESKHKMSYSGRVKTLCLQKNTALWIGTGGGHILLLDLSTRRLIRVIYNFCNSVRVMMTAQLGSLKNVMLVLGYNRKNTEGTQKQKEIQSCLTVWDINLPHEVQNLEKHIEVRKELAEKMRRTSVE
notes: phosphorylated by both non-mutated GST-LRRK2[1326-2527] and GST-LRRK2[1326-2527, G2019S]; made in house; host or cells: HEK 293 cells, pEBG-2T vector
In the case of B1, the Michaelis constant (Km) in data set [1] was 200 µM.

B2: GST-LRRK2[1326-2527, G2019S] (Homo sapiens; G2019S) (protein)
chain: B1 chain with G694S
notes: made in house; host or cells: HEK 293 cells, pEBG-2T vector
With B2, in data set [2], the Km amounted to 200 µM and the Vmax stood at 10 U/mg.
